Data published in patent publication EP4335870A1 (NantCell, Inc., dated 2024).

Target: SARS-CoV-2 Spike S1, wildtype (Table 13) (SARS-CoV-2, UniProt P0DTC2 16-685)

B1: N-612-017 (antibody, V domains shown)
VH: EVQLVESGGGLVQPGGSLRLSCAASGFTFSSYAMHWVRQAPGKGLEWVSAIWGSGSNTYYADSVKGRFTISRDNSKNTLYLQMNSLRAEDTAVYYCARGRDLAAFTKTAFDVWGQGTLVTVSS
VL: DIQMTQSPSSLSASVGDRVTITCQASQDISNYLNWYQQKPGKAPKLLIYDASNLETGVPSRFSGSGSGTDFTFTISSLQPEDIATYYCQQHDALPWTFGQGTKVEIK
Work on B1 yielded a Kd of 12 nM.

B2: N-612-014 (antibody, V domains shown)
VH: EVQLVESGGGLVQPGGSLRLSCAASGFTFSSYAMTWVRQAPGKGLEWVSYISGSGGGTYYADSVKGRFTISRDNSKNTLYLQMNSLRAEDTAVYYCARDRWASGWLAFDVWGQGTLVTVSS
VL: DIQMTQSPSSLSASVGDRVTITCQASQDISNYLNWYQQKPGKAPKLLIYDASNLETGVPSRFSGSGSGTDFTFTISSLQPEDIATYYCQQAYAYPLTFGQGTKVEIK
In the case of B2, the Kd is reported as 11.4 nM.

B3: N-612-004 (antibody, V domains shown)
VH: EVQLVESGGGLVQPGGSLRLSCAASGFTFSSYYMHWVRQAPGKGLEWVSAISGSGGYTYYADSVKGRFTISRDNSKNTLYLQMNSLRAEDTAVYYCARDRDHAYDWGFDVWGQGTLVTVSS
VL: DIQMTQSPSSLSASVGDRVTITCQASQDISNYLNWYQQKPGKAPKLLIYDASNLETGVPSRFSGSGSGTDFTFTISSLQPEDIATYYCQQWADWPLTFGQGTKVEIK
B3 was tested, and the Kd was 0.62 nM.

B4: N-612-056 (antibody, V domains shown)
VH: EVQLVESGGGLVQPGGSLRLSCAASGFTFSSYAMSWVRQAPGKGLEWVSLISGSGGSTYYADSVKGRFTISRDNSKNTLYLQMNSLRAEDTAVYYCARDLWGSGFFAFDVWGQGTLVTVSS
VL: DIQMTQSPSSLSASVGDRVTITCQASQDISNYLNWYQQKPGKAPKLLIYDASNLETGVPSRFSGSGSGTDFTFTISSLQPEDIATYYCQQDAGTPLTFGQGTKVEIK
B4 showed a Kd of 4.5 nM.
